Each block holds one substance with its values, some of them ahead of it.
Experiments:
[1] = molecular target: RspWYL1 double mutant I108D/I109D (Ruminococcus sp.); test: SEC; Superdex 200 gel filtration column, compared with a protein molecular mass standard mixture
[2] = molecular target: RspWYL1 double mutant Y386A/N387A (Ruminococcus sp.); test: as above
[3] = molecular target: full-length RspWYL1 (Ruminococcus sp. WYL1, amino acids 1–392) (Ruminococcus sp.); test: as above
[4] = molecular target: full-length RspWYL1 (Ruminococcus sp. WYL1, amino acids 1–392) (Ruminococcus sp.); test: SEC-MALS; HPLC SEC-MALS, AdvanceBio SEC 300A column, 50 mM Tris-HCl pH 7.5, 150 mM NaCl, 1 mM TCEP; RspWYL1 loaded at 10 mg/ml

stoichiometry N [1]: 2
Substance: RspWYL1 double mutant I108D/I109D (natural protein)

stoichiometry N [2]: 2
Substance: RspWYL1 double mutant Y386A/N387A (natural protein)

stoichiometry N [3]: 2
stoichiometry N [4]: 2
Substance: full-length RspWYL1 (Ruminococcus sp. WYL1, amino acids 1–392) (natural protein)
